Read-outs that look alike come from different tables or passages of the source.
Key:
[1] = biological target: Pfs48/45 in its native configuration on the female gamete surface membrane (Plasmodium falciparum NF54 (endogenous in gametes))
[2] = biological target: Pfs48/45 in its native configuration on the female gamete surface membrane (Plasmodium falciparum NF54 (endogenous in gametes)); remark: listed apart in the source
[3] = biological target: Pfs48/45 6C.mAgE1 (K416N; C terminal 6x HIS tag) (Plasmodium falciparum); assay: BLI
[4] = biological target: Pfs48/45 6C.mAgE1 (D320H; C terminal 6x HIS tag) (Plasmodium falciparum); assay: BLI
[5] = biological target: Pfs48/45 6C.mAgE1 (L314I; C terminal 6x HIS tag) (Plasmodium falciparum); assay: BLI
[6] = biological target: Pfs48/45 6C.mAgE1 (S322N; C terminal 6x HIS tag) (Plasmodium falciparum); assay: BLI

Row | Binder | other [1] [% TRA] | Kd [3] [nM] | also measured
1 | RUPA-29 (hIgG1) (antibody, V domains shown) VH: QVHLVESGGGVVQPGRSLRLSCAASGFTFRSYGMHWVRLAPGKGLEWVTAIWYDGSKKHFADSVKGRFTISRDNSKNTLYLQMSSLRVEDTAVYYCARDFAHGAFYPVDWGRGTLVTVSS VL: SYELTQPPSVSVSPGQTARITCSGDALPKKHAYWYQQKSGQAPVLVIYDDSKRPSGIPERFSGSSSGTMATLSISGAQVEDEAAYYCYSSDTSANYWVFGGGTKLTVL | > 80 |  | 
2 | RUPA-50 (hIgG1) (antibody, V domains shown) VH: QVHLVESGGGVVQPGRSLRLSCAASGFTFRSYGMHWVRRVPGKGLEWVATISYDETFKDYPDSVKGRFTISRDNSKNTLFLQMNSLRPADTAVYYCAKDRAHSMHYFEYWGRGTLVTVSS VL: SYELTQPPSVSVSPGQTARLTCSGDALPKKFAYWYQLKSGQAPVLVIYEDSKRPSGIPERFSGSSSGTTATLTISGAQVEDEADYYCYSRDGSGDQKNIFGGGTKLTVL | > 80 |  | 
3 | RUPA-54 (hIgG1) (antibody, V domains shown) VH: QVQLVESGGGVVQPGRSLRLSCTASGFTFRSYGIHWVRQAPGKGLQWVAFISYDGRNKYYADSVKGRFTISRDNSKNTLYLQMSGLRADDTAVYYCAKDSDNDCTATSCYTVSWGQGTLVTVSS VL: SYELTQPPSVSVSPGQTARITCSGDALPKKYAYWYQQKSGQAPVLVIYEDKKRPSGIPERFSGSSSGTMATLTISGAQVEDEADYYCYSTDSRTDHGGIFGGGTKLTVL | > 80 |  | 
4 | RUPA-100 (hIgG1) (antibody, V domains shown) VH: QVQLVESGGGVVQPGRSLRLSCAASGFSFSHYGMHWVRQAPGKGLEWVAVISYDGNYKYYGDSVKGRFTISRDNFKNTLYLQMNSLRPEDTAVYYCAKGKAHSCVSTSCYTDFWGQGTLVTVPS VL: SYELTQPPSVSVSPGQTARITCSGDALPKKYAYWYQQKSGQAPVLVIYEDSKRPSGIPERFSGSSSGTMATLTISGAQVEDEGDYYCYSTDSSYNHRGVFGGGTKLTVL | > 80 |  | 
5 | RUPA-160 (hIgG1) (antibody, V domains shown) VH: QVQLVQSGAEVKKPGASVKASCKASGYTFDNFDIIWARQATGQGLEWMGWMNPNTGKKGYAQNLKDRVTMTRDSSISTAYLELSSLRSEDTAVYYCVRAVGSYYGSGGWFDPWGQGTLVTVSS VL: QSVLTQPPSASGTPGQRVTIACSGSSSNIGGNNVKWYQQLPGTAPKLVIYNNDERPPGVPDRVSGSKSGTSASLAISGVQSEDEADYYCATWDDSMKREVFGGGTKLTVL | 80 |  | 
6 | RUPA-47 (Fab) (Fab, V domains shown) VH: QVQLVQSGAEVKKPGASVKLSCTASGYTFTNFGITWVRQAPGQGLEWMAWISVYSGDTDYAQRFQGRVTMTTDTSTRTAYMEMRSLSFDDTAVYYCVRGGRDSPILGGYWGQGTLVTVSS VL: EIVLTQSPGTLSLSPGERVTLSCRASQSVRSMYLAWYQQKPGQAPRLLIHGASIRATGIPDRFSGSGSGTDFTLTISRLEREDFAVYYCHQYGSSPLTFGGGTKVESK |  |  | other [2]: 100 % TRA
7 | RUPA-29 (Fab) (Fab, V domains shown) VH: QVHLVESGGGVVQPGRSLRLSCAASGFTFRSYGMHWVRLAPGKGLEWVTAIWYDGSKKHFADSVKGRFTISRDNSKNTLYLQMSSLRVEDTAVYYCARDFAHGAFYPVDWGRGTLVTVSS VL: SYELTQPPSVSVSPGQTARITCSGDALPKKHAYWYQQKSGQAPVLVIYDDSKRPSGIPERFSGSSSGTMATLSISGAQVEDEAAYYCYSSDTSANYWVFGGGTKLTVL |  | 109 | 
8 | RUPA-44 (Fab) (Fab, V domains shown) VH: QLQLQESGPGLVKPSETLSLTCTVSGGSISRSPYYWGWIRQPPGKGLEWFGSIYNNGSTYYNPPLKSRLTISVDTSKNQFSLKLSSVTAADTAVYYCARHGGSTGMKVVVIAPPDYWGQGTLVTVSS VL: DIQMTQSPATLSASVGDRVTITCRASQSISSWLAWYQQKPGEAPKLLIYKASSLQSGVPSRFSGSGSGTKFSLTISSLQPDDFATFYCQQYHSYPYTFGQGTKLEIK |  | < 20 | Kd [4]: < 20 nM; Kd [5]: < 20 nM; Kd [6]: < 20 nM
9 | RUPA-117 (Fab) (Fab, V domains shown) VH: QLQLQESGPGLVKPSETLSLTCTVSGGSISRSPYYWGWIRQPPGKGLEWFGSVYNNGSTYYNPSLKSRVTISVDTSKNQFSLKLSSVTAADTALYYCARHGGSTGMKVVVIAPPDYWGQGTLVTVSS VL: DIQMTQSPATLSASVGDRVTITCRASQSISIWLAWYQQKPGEAPKLLIYKASSLQSGVPSRFSGSASGTKFSLTISSLQPDDFATFYCQQYHSYPYTFGQGTKLEIK |  | < 20 | Kd [4]: < 20 nM; Kd [5]: < 20 nM; Kd [6]: < 20 nM
